What all share (test): PIE-FCCS
The target of assay [1] is β2AR-AcGFP1 / β2AR-mCherry (β2-adrenergic receptor with a C-terminal fluorescent protein) (human) (UniProt P07550).
Assay [2] shares this target. The source holds these as a separate data set.
The target in assay [3] is T1, CXCR4-AcGFP1 / CXCR4-mCherry (C-X-C motif chemokine receptor 4 with a C-terminal fluorescent protein) (human), P61073.
T1 chain: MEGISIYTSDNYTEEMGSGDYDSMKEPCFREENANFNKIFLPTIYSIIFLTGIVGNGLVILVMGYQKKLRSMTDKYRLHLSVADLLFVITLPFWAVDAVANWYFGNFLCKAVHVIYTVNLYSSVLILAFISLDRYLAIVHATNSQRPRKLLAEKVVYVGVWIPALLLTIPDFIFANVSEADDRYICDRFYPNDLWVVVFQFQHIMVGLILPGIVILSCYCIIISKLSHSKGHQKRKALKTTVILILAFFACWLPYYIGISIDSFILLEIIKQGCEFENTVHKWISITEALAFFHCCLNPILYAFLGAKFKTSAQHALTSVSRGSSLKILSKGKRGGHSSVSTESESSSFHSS
To be noted: remark: other sources report otherwise.

Assay [4] addresses T1, CXCR4-AcGFP1 / CXCR4-mCherry (C-X-C …). The following applies: remark: other sources report otherwise.

Read-outs that look alike come from different tables or passages of the source.

“β2AR-AcGFP1 / β2AR-mCherry (β2-adrenergic receptor with a C-terminal fluorescent protein) (from UniProt P07550 1-413)”: the fc in assay [1] is 0.13; in assay [2], 0.11.

B1: CXCR4-AcGFP1 / CXCR4-mCherry (C-X-C motif chemokine receptor 4 with a C-terminal fluorescent protein), P61073 1-352 (receptor)
chain: MEGISIYTSDNYTEEMGSGDYDSMKEPCFREENANFNKIFLPTIYSIIFLTGIVGNGLVILVMGYQKKLRSMTDKYRLHLSVADLLFVITLPFWAVDAVANWYFGNFLCKAVHVIYTVNLYSSVLILAFISLDRYLAIVHATNSQRPRKLLAEKVVYVGVWIPALLLTIPDFIFANVSEADDRYICDRFYPNDLWVVVFQFQHIMVGLILPGIVILSCYCIIISKLSHSKGHQKRKALKTTVILILAFFACWLPYYIGISIDSFILLEIIKQGCEFENTVHKWISITEALAFFHCCLNPILYAFLGAKFKTSAQHALTSVSRGSSLKILSKGKRGGHSSVSTESESSSFHSS
Consider B1, for which, in assay [3], the mean fc came to 0.39. Further, the median fc in assay [3] was 0.31; in assay [4], 0.18.

The values are drawn from article PMC10998613.
